Source: patent US11529425B2, “Immunoconjugates comprising signal regulatory protein alpha” (DINGFU BIOTARGET CO., LTD., priority 2017, dated 2022)

What was measured:
[1] = target: T1, CD47-muFc (Homo sapiens, UniProt Q08722); assay: Binding kinetics by bio-layer inferometry (BLI), Octet K2
T1 construct: made in house; host or cells: transiently transfected FreeStyle 293F cells (HEK293)
Excerpt: The amino acid sequence of the human CD47 extracellular domain (i.e., the 19th residue to the 141th residue in Q08722) was obtained according to the amino acid sequence of human CD47 (Q08722) in the protein database Uniprot. According to the amino acid sequence of the constant region of murine immunoglobulin gamma1 (P01868) in the protein database Uniprot, the amino acid sequence of muFc (i.e., the 112th residue to the 213th residue in P01868) was obtained. The DNAworks Online Tool (helixweb.nih.gov) was used to design the corresponding coding DNA sequence to obtain the CD47-muFc fusion protein gene, and the DNA fragment was obtained by artificial synthesis. The synthetic gene sequences were cloned into commercial vector pcDNA4/myc-HisA (Invitrogen, V863-20) by Fermentas HindIII and EcoRI. The recombinant plasmids were then sequenced for confirmation, thereby obtaining the plasmid DNA of pcDNA4-CD47-muFc. The amino acid sequences of CD47-muFc is as set forth in SEQ ID NO: 61, and the polynucleotide sequence encoding it is as set forth in SEQ ID NO: 62.
Binding kinetics of a hu56di-SIRPα immunoconjugate or control antibodies (SIRPα-Fc IgG1 and AB6.12 IgG1) were determined by the bio-layer inferometry (BLI) method using Octet K2 system (FortéBio). All experiments were performed at 25° C. under a PBS buffer containing 0.5% BSA and 0.5% Tween 20, pH 7.2. CD47-muFc was immobilized onto AHC Biosensors, which were subsequently used in association (with hu56di-SIRPα, SIRPα-Fc IgG1 or AB6.12 IgG1) and dissociation measurements each performed for a time window of 40 seconds and 300 seconds, respectively. After the above steps, the subtracted binding interference data were applied to the calculations of binding constants using the FortéBio analysis software provided with the instrument.

[2] = reported in treated animal; cited from earlier work
[3] = test system: human erythrocytes (RBC); assay: RBC binding in tumor cell / 15-fold excess RBC mix, flow cytometry; details: tumor cells mixed with 15-fold excess of RBCs, 20 μg/ml, FIG. 6a-6e
[4] = reported after being injected into human; cited from earlier work
[5] = test system: A375 cell (expressing CD47) and A375-PD-L1 tumor cells (expressing both CD47 and PD-L1); assay: Tumor binding in excess erythrocyte antigen sink, flow cytometry; details: 15-fold excess of RBCs, FIG. 6a
Procedure: An important concern about CD47-based therapeutics is the expression of the target on the surface of erythrocyte, which has the potential to act as a large antigen sink and cause hematological toxicity. […] The binding of hu56di-SIRPα to tumor cell in excess human erythrocytes antigen sink was therefore assessed by flow cytometry. A375 cell (expressing CD47) and A375-PD-L1 tumor cells (expressing both CD47 and PD-L1) were mixed with a 15-fold excess of RBCs, and then incubated with 20 μg/ml hu56di-SIRPα, SIRPα-Fc IgG1 or AB6.12 IgG1 or isotype control (human IgG1) at 4° C. for 30 min. Then the cells were washed to remove unbound proteins and incubated with an anti-hlgG Fc gamma specific PE antibody at 4° C. for 20 min. The cells were analyzed by flow cytometry (Life Technology). The gate of erythrocytes was assessed by anti-human CD235a (eBiosciences Cat #12-9987-80).
Then the cells were washed to remove unbound proteins and incubated with an anti-hlgG Fc gamma specific PE antibody at 4° C. for 20 min. The cells were analyzed by flow cytometry (Life Technology). The gate of erythrocytes was assessed by anti-human CD235a (eBiosciences Cat #12-9987-80).

[6] = test system: RBC; assay: Binding to fresh RBC diluted 2500 times, flow cytometry; details: 20 μg ml^−1, FIG. 6f
Procedure: Similarly, fresh RBC cell was diluted 2500 times, then it was incubated with 20 μg ml^−1 isotype control (human IgG1), hu56di-SIRPα, hu56di-CV1, SIRPα-Fc IgG1 and AB6.12 IgG1, respectively. The results were shown in FIG. 6f, in which serial numbers of 1, 2, 3, 4 and 5 correspond to isotype control, hu56di-SIRPα, hu56di-CV1, SIRPα-Fc IgG1 and AB6.12 IgG1.

[7] = test system: mouse RBCs; assay: Mouse RBC binding, MC38 tumor cells mixed with 15-fold excess of mouse RBCs; details: MC38 cells with 15-fold excess of mouse RBCs, 20 μg/ml, FIG. 6g/6h
Procedure: Similarly, MC38 tumor cells were mixed with a 15-fold excess of mouse RBCs, and then incubated with 20 μg/ml, a-mPD-L1, mSIRPα-Fc, CV1-Fc, mPD-L1-CV1, mPD-L1-mSIRPα or isotype control (human IgG1) at 4° C. for 30 min. Then the cells were washed to remove unbound proteins and incubated with an anti-hlgG Fc gamma specific PE antibody at 4° C. for 20 min. The cells were analyzed by flow cytometry (Life Technology). The gate of erythrocytes was assessed by anti-mouse RBC antibody (abcam Cat #ab106101). In FIG. 6g, serial numbers of 1, 2, 3 and 4 correspond to isotype control (human IgG1), mSIRPα-Fc, a-mPD-L1 and mPD-L1-mSIRPα. In FIG. 6h, serial numbers of 1, 2, 3 and 4 correspond to isotype control (human IgG1), CV1-Fc, a-mPD-L1 and mPD-L1-CV1.

T1 sequence (Q08722 with tags, fused parts or gaps): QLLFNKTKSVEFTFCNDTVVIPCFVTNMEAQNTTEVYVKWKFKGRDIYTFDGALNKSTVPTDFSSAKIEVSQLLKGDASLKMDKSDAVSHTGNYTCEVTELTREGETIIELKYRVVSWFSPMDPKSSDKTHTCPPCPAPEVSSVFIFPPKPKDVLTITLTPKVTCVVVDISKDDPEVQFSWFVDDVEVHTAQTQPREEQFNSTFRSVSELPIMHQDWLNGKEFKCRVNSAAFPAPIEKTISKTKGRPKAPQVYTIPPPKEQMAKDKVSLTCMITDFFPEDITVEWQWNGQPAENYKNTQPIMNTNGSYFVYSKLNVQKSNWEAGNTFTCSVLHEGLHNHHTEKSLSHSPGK

| Substance | binding affinity to CD47 (comparison in words) ([1]; Table 6) | kon ([1]; association 40 seconds, 25° C.) [M⁻¹ s⁻¹] | kdis ([1]; dissociation 300 seconds, 25° C.) [s⁻¹] | anemia [2] | binding to RBC (MFI) [3] | thrombocytopenia [4] | preference of binding, tumor cells versus RBC [5] | binding to RBC [6] | binding to mouse RBC [7] |
| --- | --- | --- | --- | --- | --- | --- | --- | --- | --- |
| SIRPα-Fc IgG1: reference homodimer: human SIRPα fused via peptide linker to human IgG1 Fc, SEQ ID NO: 69 | comparable binding affinity to CD47 | 650000 | 0.00377 | anemia has been reported | bind to RBC | induced thrombocytopenia | bound tumor cells and RBCs at the same time | weaker binding to RBC than hu56di-CV1 and AB6.12 IgG1 |  |
| mSIRPα-Fc: mouse SIRPα fused via linker to human IgG1-Fc, SEQ ID NO: 152, Group 18 |  |  |  |  |  |  |  |  | weaker binding to RBC than mPD-L1-CV1 |
